Results as given in patent publication US20140314775A1 (ADRENOMED, published 2014).

Assays:
[1] = target: T1, human Adrenomedullin (hADM 1-52) (human, not fully specified; C-terminal amide (printed as PRSKISPQGY-NH2 for aa 43-52 of ADM, SEQ ID NO: 25; not restated for the peptide used in the assays)); experiment: SPR, Biacore 2000; antibody captured via anti-mouse Fc on CM5, Adrenomedullin as analyte
T1 construct: also called Human ADM 1-52; human ADM
T1 peptide: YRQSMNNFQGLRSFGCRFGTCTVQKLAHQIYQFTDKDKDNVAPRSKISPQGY
Protocol: Reversible immobilization of the antibodies was performed using an anti-mouse Fc antibody covalently coupled in high density to a CM5 sensor surface according to the manufacturer's instructions (mouse antibody capture kit; GE Healthcare).

[2] = target: T1, human Adrenomedullin (hADM 1-52); experiment: cell-based or functional assay

B1: NT-H (antibody, V domains shown)
VH: QVQLQQSGAELMKPGASVKISCKATGYTFSRYWIEWVKQRPGHGLEWIGEILPGSGSTNYNEKFKGKATITADTSSNTAYMQLSSLTSEDSAVYYCTEGYEYDGFDYWGQGTTLTVSS
VL: DVLLSQTPLSLPVSLGDQATISCRSSQSIVYSNGNTYLEWYLQKPGQSPKLLIYRVSNRFSGVPDRFSGSGSGTDFTLKISRVEAEDLGVYYCFQGSHIPYTFGGGTKLEIK
notes: also called antibody NT-H; NT-H antibody
For B1, the Kd [1] was 5.9 nM and the “IC50 (read off the curve; half of the partial plateau), in the presence of 5.63 nM hADM” value [2] was about 2 µg/mL.
